Where a chain is given by its changes, count along the chain named. Names may count otherwise.
T1: Flag-Smad4, full length (UniProt Q13485 1-552)
T1 construct: Smad4; plasmid pCMV5-Flag-Smad4 (from J. Massagué); also called Smad4 FL; source: HEK-293, transfected, in lysate
T1 sequence (looked up): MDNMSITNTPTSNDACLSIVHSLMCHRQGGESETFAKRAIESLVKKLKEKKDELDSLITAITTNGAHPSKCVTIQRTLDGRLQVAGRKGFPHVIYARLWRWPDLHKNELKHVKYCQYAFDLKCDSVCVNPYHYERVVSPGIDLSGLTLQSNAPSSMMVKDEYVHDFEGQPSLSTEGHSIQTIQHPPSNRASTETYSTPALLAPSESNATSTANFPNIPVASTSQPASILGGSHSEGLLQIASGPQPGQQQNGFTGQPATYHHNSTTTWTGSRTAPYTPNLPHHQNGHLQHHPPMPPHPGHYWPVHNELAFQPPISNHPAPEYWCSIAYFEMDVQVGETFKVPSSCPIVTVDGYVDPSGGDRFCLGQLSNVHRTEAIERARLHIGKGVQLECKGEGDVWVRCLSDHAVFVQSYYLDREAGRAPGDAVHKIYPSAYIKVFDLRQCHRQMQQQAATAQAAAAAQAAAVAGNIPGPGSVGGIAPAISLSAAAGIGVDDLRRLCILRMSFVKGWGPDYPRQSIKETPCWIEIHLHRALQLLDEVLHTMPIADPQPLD

T2: Flag-SARA, full length (UniProt O95405 1-1425)
T2 construct: SARA; plasmid pCMV5b-Flag-SARA; also called SARA FL; source: HEK-293, transfected, in lysate
T2 sequence (looked up): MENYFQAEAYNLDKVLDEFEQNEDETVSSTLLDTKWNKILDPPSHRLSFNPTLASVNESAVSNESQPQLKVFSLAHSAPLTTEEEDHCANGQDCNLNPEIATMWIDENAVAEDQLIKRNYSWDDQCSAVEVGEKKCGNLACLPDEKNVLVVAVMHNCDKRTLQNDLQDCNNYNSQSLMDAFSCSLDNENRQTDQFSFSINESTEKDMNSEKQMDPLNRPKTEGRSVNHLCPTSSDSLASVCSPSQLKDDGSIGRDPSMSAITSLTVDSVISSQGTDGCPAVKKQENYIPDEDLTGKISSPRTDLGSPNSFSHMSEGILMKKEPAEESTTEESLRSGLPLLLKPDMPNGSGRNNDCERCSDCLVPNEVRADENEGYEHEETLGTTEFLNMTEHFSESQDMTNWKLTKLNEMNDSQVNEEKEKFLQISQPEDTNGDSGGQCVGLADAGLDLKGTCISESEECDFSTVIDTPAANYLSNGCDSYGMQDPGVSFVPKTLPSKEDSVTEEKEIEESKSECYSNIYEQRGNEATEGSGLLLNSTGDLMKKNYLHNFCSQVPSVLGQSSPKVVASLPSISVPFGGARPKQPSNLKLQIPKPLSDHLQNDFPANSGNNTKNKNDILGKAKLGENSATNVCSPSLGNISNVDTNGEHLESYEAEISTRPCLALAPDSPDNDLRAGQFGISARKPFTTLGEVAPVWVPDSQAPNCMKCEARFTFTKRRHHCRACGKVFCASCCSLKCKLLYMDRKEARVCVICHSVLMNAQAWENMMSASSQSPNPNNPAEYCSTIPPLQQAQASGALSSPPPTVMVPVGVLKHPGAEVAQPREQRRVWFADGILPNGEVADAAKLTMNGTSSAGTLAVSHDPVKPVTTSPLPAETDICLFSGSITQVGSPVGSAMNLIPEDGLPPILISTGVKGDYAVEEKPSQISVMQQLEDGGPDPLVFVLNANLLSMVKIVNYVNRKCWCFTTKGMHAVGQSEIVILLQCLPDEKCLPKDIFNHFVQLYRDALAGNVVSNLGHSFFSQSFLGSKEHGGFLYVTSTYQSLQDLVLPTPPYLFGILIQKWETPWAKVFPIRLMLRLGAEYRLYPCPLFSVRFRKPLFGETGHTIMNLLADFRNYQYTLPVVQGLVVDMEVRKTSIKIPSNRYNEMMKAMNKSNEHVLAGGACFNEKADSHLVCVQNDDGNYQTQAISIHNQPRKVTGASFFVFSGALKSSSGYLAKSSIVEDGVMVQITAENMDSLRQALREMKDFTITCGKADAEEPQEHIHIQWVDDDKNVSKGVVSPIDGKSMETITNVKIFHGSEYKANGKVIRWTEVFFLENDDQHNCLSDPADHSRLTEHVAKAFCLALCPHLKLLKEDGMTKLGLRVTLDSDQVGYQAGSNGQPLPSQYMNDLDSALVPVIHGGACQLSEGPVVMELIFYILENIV

B1: Renilla luciferase-Smad3 C338A (natural protein, UniProt P84022 1-425, looked up)
chain: MSSILPFTPPIVKRLLGWKKGEQNGQEEKWCEKAVKSLVKKLKKTGQLDELEKAITTQNVNTKCITIPRSLDGRLQVSHRKGLPHVIYCRLWRWPDLHSHHELRAMELCEFAFNMKKDEVCVNPYHYQRVETPVLPPVLVPRHTEIPAEFPPLDDYSHSIPENTNFPAGIEPQSNIPETPPPGYLSEDGETSDHQMNHSMDAGSPNLSPNPMSPAHNNLDLQPVTYCEPAFWCSISYYELNQRVGETFHASQPSMTVDGFTDPSNSERFCLGLLSNVNRNAAVELTRRHIGRGVRLYYIGGEVFAECLSDSAIFVQSPNCNQRYGWHPATVCKIPPGANLKIFNNQEFAALLAQSVNQGFEAVYQLTRMCTIRMSFVKGWGAEYRRQTVTSTPCWIELHLNGPLQWLDKVLTQMGSPSIRCSSVS
notes: Smad3; source: HEK-293, transfected together with constitutively active Alk5, in lysate
B2: Renilla luciferase-Smad3 Q322A/Y324A (natural protein, UniProt P84022 1-425, looked up)
chain: B1 chain with Q322A, Y324A, A338C
notes: as for B1
B3: Renilla luciferase-Smad3 V224A (natural protein, UniProt P84022 1-425, looked up)
chain: B1 chain with V224A, A338C
notes: as for B1
B4: Renilla luciferase-Smad3 W406A (natural protein, UniProt P84022 1-425, looked up)
chain: B1 chain with A338C, W406A
notes: as for B1
B5: Renilla luciferase-Smad3 P335A/P336A (natural protein, UniProt P84022 1-425, looked up)
chain: B1 chain with P335A, P336A, A338C
notes: as for B1
B6: Renilla luciferase-Smad3 L340A (natural protein, UniProt P84022 1-425, looked up)
chain: B1 chain with A338C, L340A
notes: as for B1
B7: Renilla luciferase-Smad3 W326A (natural protein, UniProt P84022 1-425, looked up)
chain: B1 chain with W326A, A338C
notes: as for B1
B8: Renilla luciferase-Smad3 V356R (natural protein, UniProt P84022 1-425, looked up)
chain: B1 chain with A338C, V356R
notes: as for B1
B9: Renilla luciferase-Smad3 Y226A (natural protein, UniProt P84022 1-425, looked up)
chain: B1 chain with Y226A, A338C
notes: as for B1
B10: Renilla luciferase-Smad3 S254A (natural protein, UniProt P84022 1-425, looked up)
chain: B1 chain with S254A, A338C
notes: as for B1
B11: Renilla luciferase-Smad3 K341A (natural protein, UniProt P84022 1-425, looked up)
chain: B1 chain with A338C, K341A
notes: as for B1
B12: Renilla luciferase-Smad3 E267A (natural protein, UniProt P84022 1-425, looked up)
chain: B1 chain with E267A, A338C
notes: as for B1
B13: Renilla luciferase-Smad3 Y298A (natural protein, UniProt P84022 1-425, looked up)
chain: B1 chain with Y298A, A338C
notes: as for B1
B14: Renilla luciferase-Smad3 Y297A (natural protein, UniProt P84022 1-425, looked up)
chain: B1 chain with Y297A, A338C
notes: as for B1

These binders were tested against T1, Flag-Smad4, full length (assay: co-IP; LUMIER: Renilla luciferase-Smad3 and Flag-tagged partner co-expressed with constitutively active Alk5 in HEK-293; Flag protein captured from cleared lysate (TNE: 10 mM Tris-HCl pH 7.8, 150 mM NaCl, 1 mM EDTA, 1% Igepal CA-630) on anti-Flag 96-well plates, 2 h at 4 °C; co-precipitated Renilla luciferase activity, TrxGA background subtracted, percent of wild-type Smad3). Conditions: partners not purified.

| Binder | percent binding relative to wild-type Smad3 [%] |
| --- | --- |
| B1 | 125 |
| B2 | 124 |
| B3 | 122 |
| B4 | 109 |
| B5 | 309 |
| B6 | 181 |
| B7 | 194 |
| B8 | 233 |
| B9 | 110 |
| B10 | 101 |
| B11 | 275 |
| B12 | 458 |
| B13 | 120 |

The binders below were run against T3, Smurf2 Smad-binding domain (amino acids 252–330) on the Flag-thioredoxin scaffold (UniProt Q9HAU4 252-330) in the same assay as above. Conditions: partners not purified.
T3 construct: Smurf2, amino acids 252–330; also called Smurf2 aa252–330; TrxSmurf2; source: HEK-293, transfected, in lysate
T3 sequence (Q9HAU4 252-330): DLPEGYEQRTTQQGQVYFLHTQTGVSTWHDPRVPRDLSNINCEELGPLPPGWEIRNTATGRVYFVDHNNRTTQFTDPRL

| Binder | percent binding relative to wild-type Smad3 [%] |
| --- | --- |
| B1 | 153 |
| B2 | 308 |
| B3 | 320 |
| B4 | 1330 |
| B5 | 255 |
| B6 | 259 |
| B7 | 653 |
| B8 | 468 |
| B9 | 365 |
| B10 | 113 |
| B11 | 130 |
| B12 | 379 |
| B13 | 144 |

These binders were tested against T2, Flag-SARA, full length in the same assay as above. Conditions: partners not purified.

| Binder | percent binding relative to wild-type Smad3 [%] |
| --- | --- |
| B1 | 136 |
| B2 | 12 |
| B3 | 42 |
| B4 | 12 |
| B5 | 16 |
| B6 | 58 |
| B7 | 13 |
| B8 | 16 |
| B14 | 38 |
| B9 | 32 |
| B10 | 154 |
| B11 | 29 |
| B12 | 82 |
| B13 | 150 |

From paper PMC3176292, “Mutations in Protein-Binding Hot-Spots on the Hub Protein Smad3 Differentially Affect Its Protein Interactions and Smad3-Regulated Gene Expression” (PLoS ONE, 2011)
